According to the nanobody polyreactivity screen of Harvey et al. (2022):

Assay: yeast display, Sf9 membrane polyspecificity reagent, FACS + sequencing; frameworks hold sequencing errors
Procedure, shortened: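 Nanobodies came from a synthetic yeast display library in Saccharomyces cerevisiae BJ5465, induced with galactose for 36–48 hours and stained for 1 hour at 4 °C with 10% biotinylated, detergent-solubilized Sf9 membrane reagent. Cells were enriched on streptavidin microbeads and then FACS-sorted, with low and high (top ~1%) gates set on anti-HA fluorescence for expression and streptavidin fluorescence for reagent binding. Each polyreactivity label reflects the gate a clone came from. Genes were amplified by colony PCR, sequenced by MiSeq 2 × 250 and filtered by CDR length.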
With “QVQLVESGGGLVQAGGSLRLSCAASGFTFIYYALGWYRQAPGKERELLATISYDGGSTYYSDSVKGRFTISRDNAKNTVYLQMNSLKPEDTAVYYCNADFADDKYYLFESELEYDYWGQGTQVTVSS” the “polyreactivity (PSR sort gate)” value was “low polyreactivity”.
With “QVQLVESGGGLVQAGGSLRLSCAASGFTFIYYAMGWYRQAPGKERELVAAISRRGGSTYYADSVKGRFTISRDNAKNTVYLQMNSLKPEDTAVYYCAADYTSAILRSDYWGQGTQVTVSS” the “polyreactivity (PSR sort gate)” value was “high polyreactivity”.
For “QVQLVESGGGLVQAGGSLRLSCAASGFTFIYYAMGWYRQAPGKERELVAGISSGGRTSYADSVKGRFTISRDNAKNTVYLQMNSLKPEDTAVYYCATPVSRFRRTEYGYYYWGQGTQVTVSS”, the “polyreactivity (PSR sort gate)” value was “high polyreactivity”.
With “QVQLVESGGGLVQAGGSLRLSCAASGFTFKFYAMGWYRQAPGKEREFVAAISHSGGRTYYADSVKGRFTISSDNAKNTVYLQLNILKPEDTAFYYCAAAEGGGLVTYDYWGQGTQVTVSS” the “polyreactivity (PSR sort gate)” value was “low polyreactivity”.
For “QVQLVESGGGLVQAGGSLRLSCAASGFTFKGYTMGWYRQAPGKERELVAAISRSGGRTYYADSVKGRFTISRDNAKNTVYLQMNSLKPEDTAVYYCAAVIIGGHDYWGQGTQVTVSS”, the “polyreactivity (PSR sort gate)” value was “high polyreactivity”.
In the case of “QVQLVESGGGLVQAGGSLRLSCAASGFTFKINGMGWYRQATGKEREFVATIRTSTGRTNYADSVKGRFTISRDNAKNTVYLQMNSLKPEDTAVYYCAATFKSGMDYWGQGTQVTVSS”, the “polyreactivity (PSR sort gate)” value is reported as “high polyreactivity”.
For “QVQLVESGGGLVQAGGSLRLSCAASGFTFKKNAMGWYRQAPGKERELVAAIRSGTSTKYADSVKGRFTISRDNAKNTVYLQMNSLKPEDTAVYYCAAEEPEYLATWRNRRYDYWGQGTQVTVSS”, the “polyreactivity (PSR sort gate)” value was “low polyreactivity”.
With “QVQLVESGGGLVQAGGSLRLSCAASGFTFKSNAMGWYRQAPGKERELVAAISGSGGRTYYADSVKGRYTISRDTAKYTVYLQMNSLKPEDTAVYYCAADYPVRSYDYWGQGTQVTVSS” the “polyreactivity (PSR sort gate)” value was “low polyreactivity”.
For “QVQLVESGGGLVQAGGSLRLSCAASGFTFKVYNAMGWYRQAPGKERELVAAISSSVGGTYYADSVKGRFTISRDYAKNTVYLQMNSLKPEDTAVYYCATDDFTYVVAKDGDYWGQGTQVTVSS”, the “polyreactivity (PSR sort gate)” value was “low polyreactivity”.
In the case of “QVQLVESGGGLVQAGGSLRLSCAASGFTFKYNVMGWYIQAPGKERELVAAISSAGNTNYADSVKGRFTISRDNAKNTVYLQMNSLKPEDTAVYFCAKRRDTLYVGVEGYYWGQGTQVTVSS”, the “polyreactivity (PSR sort gate)” value is reported as “high polyreactivity”.
With “QVQLVESGGGLVQAGGSLRLSCAASGFTFKYYAMGWYREAPGKERELVAAISLTGGSTYYADSVKGRFTISRDNAKNTVYFQMHSLIPEDTAVNYCNAVQGRQRGWEGPYGYWGQGTQVTVST” the “polyreactivity (PSR sort gate)” value was “high polyreactivity”.
With “QVQLVESGGGLVQAGGSLRLSCAASGFTFKYYAMGWYRQAPGKERELVATITRSGGNTYYADSVKGRFTISRDNAKNTVYLQMNSLKPEDTAVYYCNTRRPGKYDYWGQGTQVTVSS” the “polyreactivity (PSR sort gate)” value was “high polyreactivity”.
For “QVQLVESGGGLVQAGGSLRLSCAASGFTFKYYVMGWYRQAPGKERELVASISKRGGSTRYADSVKGRFTISRDNAKNTVYLQMNSLKPEDTAVYYCAARSKVHRWRKRYDYWGQGTQVSVSS”, the “polyreactivity (PSR sort gate)” value was “high polyreactivity”.
For “QVQLVESGGGLVQAGGSLRLSCAASGFTFLAYAMVWYRQAPGKERELVAAIRWSGGRTYYADSVKGRFTISRDNAKNTVYLQMNSLKPEDTAVYYCAADTRRVREYNYWGQGTQVTVSS”, the “polyreactivity (PSR sort gate)” value was “low polyreactivity”.
In the case of “QVQLVESGGGLVQAGGSLRLSCAASGFTFLGYVMGWYRQAPGKEREFVADITESGGRTYYADSVKGRFTISRDNAKNTVYLQMNSLKPEDTAVYYCAAELSYWGYYYSFDYWGQVTQVTVSS”, the “polyreactivity (PSR sort gate)” value is reported as “low polyreactivity”.
In the case of “QVQLVESGGGLVQAGGSLRLSCAASGFTFLHNAMGWYRQAPGKDRELVAAISYSGGSTYADSVKGRFTISRDNAKYTVYLQMNSLKPEDTADYYCNADYSSQDNFDYWGQGTQVTVSS”, the “polyreactivity (PSR sort gate)” value is reported as “low polyreactivity”.
In the case of “QVQLVESGGGLVQAGGSLRLSCAASGFTFLKNAMGWYRQAPGKERELVAAITGSGGSTYYADSVKGRFTISRDNAKNTVYLQMNSLKPEDTAVYYCNVRRGLRAYEYWGQGTQVTVSS”, the “polyreactivity (PSR sort gate)” value is reported as “high polyreactivity”.
With “QVQLVESGGGLVQAGGSLRLSCAASGFTFLPYVMGWYRQAPGKERELVAAISSSGGSTYYADSVKGRFTISRDNAKNTVYLQMNSLKPEDTAVYYCAKEIGVRRRDYEDYEYWGQGTQVTVSS” the “polyreactivity (PSR sort gate)” value was “low polyreactivity”.
In the case of “QVQLVESGGGLVQAGGSLRLSCAASGFTFLQYAMGWYRQAPGKERELVATISSGGSTYYADSVKGRFTISRDNAKNTVYLQMNSLTPEDTAVYYCNAEEHFHTYVLHFRPYYVRHDYWGKGTQVTVSS”, the “polyreactivity (PSR sort gate)” value is reported as “low polyreactivity”.
For “QVQLVESGGGLVQAGGSLRLSCAASGFTFLTYAMGWYRQAPGKERELVAAIDSGDSTKYADSVKGRFTISLDNAKNTVYLQMNSLKPEDTAVYYCNASRRYHVRAPYDYWGQGTQVTVSS”, the “polyreactivity (PSR sort gate)” value was “low polyreactivity”.
In the case of “QVQLVESGGGLVQAGGSLRLSCAASGFTFLYYAMGWYRHAPGKERELVAAITTGSSTNYADSVKGRFTISRDNAKNTVYLQMNSLKPEDTAVYYCAAEYYYRVWYGHYYEYDYWGQGTQVTVSS”, the “polyreactivity (PSR sort gate)” value is reported as “high polyreactivity”.
With “QVQLVESGGGLVQAGGSLRLSCAASGFTFLYYDMGWYRPAPGKERELVAAITSSGTSTYYADSVKGRFTISRDNAKNSVYLQMNSLKPEDTAVYYCAVLYTYAGRHRYGYWGQGTQVTVSS” the “polyreactivity (PSR sort gate)” value was “high polyreactivity”.
In the case of “QVQLVESGGGLVQAGGSLRLSCAASGFTFNDYAMGRSRQAPGKERELVAAIDWSGGRTYYADSVKGRFTISRDYEKNTVYLQMKSLKPEDTAVYYCAAVLYSRLYWYSLDYWGQGTQVTVSS”, the “polyreactivity (PSR sort gate)” value is reported as “low polyreactivity”.
With “QVQLVESGGGLVQAGGSLRLSCAASGFTFNFYAMGWYRQAPGKERELVASITSSGARTYYADSVKGRFTISRDNAKNTVYLQMNSLKPEDTAVYYCAARVYRYSASRAYDYWGQGTQVTVSS” the “polyreactivity (PSR sort gate)” value was “high polyreactivity”.
For “QVQLVESGGGLVQAGGSLRLSCAASGFTFNGNAMGWYRQAPGKERELVAAISYSGGSTYYADSVKGRFTISRDNAKNTVYLQMNSLKPVDTAVFYCAADRTAYSVRAFTKDHSGHDYCGQGTQVTVSS”, the “polyreactivity (PSR sort gate)” value was “low polyreactivity”.
For “QVQLVESGGGLVQAGGSLRLSCAASGFTFNKNPMGWYRQAPGKEREMVAAITSSGGSTYYADSVQGRFTISRDNAKNTVYLQMNSLKPEDTAVYYCAAYPQAFMADYEYWGQGTQVTVSS”, the “polyreactivity (PSR sort gate)” value was “low polyreactivity”.
With “QVQLVESGGGLVQAGGSLRLSCAASGFTFNKYAMGWYRQAPGKERELVAAISSSGGSTRYADSVKGRFTISRDNAKNTVYLQMNSLKPEDTADYYCAVYVTSDSGWWLYDYWGQGTQVTVSS” the “polyreactivity (PSR sort gate)” value was “high polyreactivity”.
With “QVQLVESGGGLVQAGGSLRLSCAASGFTFNKYAMGWYRQAPGTERELVAAISSRGGSPYYADSVKGRFTISRDNAKNTVYLQMNSLKPEDTAVYYCAVYTIGYLAWYQKFDYWGQGTQVTVSS” the “polyreactivity (PSR sort gate)” value was “high polyreactivity”.
In the case of “QVQLVESGGGLVQAGGSLRLSCAASGFTFNRYDMGWYRQAPGKERELVAAITGGSGSTYYADSVKGRFTISRDNAKNTVYLQMHSLKPEDTAVYDCAARRYRLSTPEFNYWGQGTQVTVSS”, the “polyreactivity (PSR sort gate)” value is reported as “high polyreactivity”.
In the case of “QVQLVESGGGLVQAGGSLRLSCAASGFTFNWYTMGWYRQAPGKERELVAAIRGSGSRTYYADSVKGRFTISRDNAKNTVYLQMNSLKPEDTAVYYCATDYGLYSTWGRYYRYRYDYWGQGTQVTVSS”, the “polyreactivity (PSR sort gate)” value is reported as “high polyreactivity”.
For “QVQLVESGGGLVQAGGSLRLSCAASGFTFNYNAMGWYRQAPGKERELVAAISRSGGRTYYADSVKGRFTISRDNAKNTVYLQMNSLKPEDTAVYYCAADSRTNGYDYWGQGTQVTVSS”, the “polyreactivity (PSR sort gate)” value was “high polyreactivity”.
With “QVQLVESGGGLVQAGGSLRLSCAASGFTFNYNTMGWYRPAPGKERELVARISRSGGRTYYADSVKGRFTISRDNAKNTVYLQMNSLKPEDTAVYYCNTDYYGVRHRYDYWGQGTQVTVSS” the “polyreactivity (PSR sort gate)” value was “high polyreactivity”.
With “QVQLVESGGGLVQAGGSLRLSCAASGFTFNYYAMGWYRQAPGKEREFVAAISYGGGDTYYADSVKGRFTISRDNAKNTVYLQMNSLKPEDTAVYYCNARFRKRAYRYDYWGQGTLVTVSS” the “polyreactivity (PSR sort gate)” value was “high polyreactivity”.
For “QVQLVESGGGLVQAGGSLRLSCAASGFTFNYYAMGWYRQATGKERELVAAIDSGGNTYYADSVKGRFTISRDNAKNNVYLLLNSLKPEDTAVYYCDAYSDYQYDYWGQGTQVTVSS”, the “polyreactivity (PSR sort gate)” value was “low polyreactivity”.
In the case of “QVQLVESGGGLVQAGGSLRLSCAASGFTFPANAMGWYRQAPGKERELVATITWSGGNTYYADSVKGRFTISRDNAKNTVYLQMNSLKPEDTAVYYCAKDYDPYHEQQSSEHDDYWGQGTQVTVSS”, the “polyreactivity (PSR sort gate)” value is reported as “low polyreactivity”.
For “QVQLVESGGGLVQAGGSLRLSCAASGFTFPFYAMGWYRQAPGKERELVAAITSRGGSTYYADSVKGRFTISRDNAKNTVYLQMNSLKPEDTAVYYCAADESGADYYYWGQGTQVTVSS”, the “polyreactivity (PSR sort gate)” value was “high polyreactivity”.
In the case of “QVQLVESGGGLVQAGGSLRLSCAASGFTFPFYTMGWYRQAPGKERELVAAITFSGDSTYYADSVKGRFTISRDNAKNTVYLQMNSLKPEDTAVYYCAVASYWGPEYDYWGQGTQVTVSS”, the “polyreactivity (PSR sort gate)” value is reported as “low polyreactivity”.
For “QVQLVESGGGLVQAGGSLRLSCAASGFTFPGYAMGWYRQAPGKERELVAAISYSSGSTYYADSVKGRFTISRDNAKNTVYLQMNSLKPEDTAVYYCAAYFSPVGFQYDYWGQGTQVTVSS”, the “polyreactivity (PSR sort gate)” value was “high polyreactivity”.
For “QVQLVESGGGLVQAGGSLRLSCAASGFTFPLYAMGWYRQAPGKERELVAVISRSGGSTYYADSVKGRFTISRDNAKNTVYLQMNSLKPEDTAVYYCAARLVPRSPERGNYDYWGQGTQVTVSS”, the “polyreactivity (PSR sort gate)” value was “high polyreactivity”.
For “QVQLVESGGGLVQAGGSLRLSCAASGFTFPQNAKGWYRQAPGKERELVAAITNGGTTYYADSVKGRFTISRDNAKNTVYLQMNSLKPEDTAVYYCAAYTYRYGSFKYGYWGQGTQVTVSS”, the “polyreactivity (PSR sort gate)” value was “low polyreactivity”.
In the case of “QVQLVESGGGLVQAGGSLRLSCAASGFTFPRYAMGWYRQAPGKERELVAAITVGGGRTYYADSVKGRFTISRDNANNTVYLQMNSLKPEDTAVYYFAADSHASTYDYWGQGTQVTVSS”, the “polyreactivity (PSR sort gate)” value is reported as “low polyreactivity”.
With “QVQLVESGGGLVQAGGSLRLSCAASGFTFPSNAMGWYRQAPGKERELYAAISSTDSTNYADSVKGRFTISRDNAKNTFYLQMNSLKPEDTAVYYCAKRYPRYRYNTRGNDYWGQGSQVTVSS” the “polyreactivity (PSR sort gate)” value was “low polyreactivity”.
For “QVQLVESGGGLVQAGGSLRLSCAASGFTFPVNAMGWYRQAPGKERELVAAITSGGRTNYADSVKGRFTISRDNAKNTVYLQMNSLKPEDTAVYYCAAKFGYYWNSRTSGYWGQGTQVTVSS”, the “polyreactivity (PSR sort gate)” value was “high polyreactivity”.
